Consider 14 molecules from paper PMC12392863, “Natural Design of a Stabilized Cross‐β Fold: Structure of the FuA FapC from Pseudomonas Sp. UK4 Reveals a Critical Role for Stacking of Imperfect Repeats” (Advanced Materials (Deerfield Beach, Fla.), 2025).

The target of data set [1] is FapC from P. fluorescens Pf5, wild type (P. fluorescens Pf5) (UniProt P0DXF5). Briefly: formic acid dissolution of fibrils with SDS-PAGE; mature fibrils in 0-100% formic acid, 30 min, room temperature; centrifuged; released monomer in the supernatant on SDS-PAGE, normalised to 100% FA.
Data set [2] addresses FapC from Pseudomonas aeruginosa PAO1, wild type (Pseudomonas aeruginosa PAO1). Briefly: seeded ThT fibrillation kinetics, global fit with AmyloFit; 5 µM FapC UK4 monomer with 0-10% v/v sonicated fibril seeds of UK4, PAO1, Pf5 or F1 FapC; 40 µM ThT, 50 mM Tris/HCl pH 7.4, 37 °C, no shaking; constants of monomer addition to (k+) and release from (Koff) fibrils; time in hours.
In data set [3] the target is FapC from Pseudomonas fluorescens Pf5, wild type (P. fluorescens Pf5). The description is as above.
Data set [4] concerns the target FapC from Pseudomonas putida F1, wild type (Pseudomonas putida F1). The data set is described as above.
The target is the same in data set [5]. Nature of the data set: formic acid dissolution of fibrils with SDS-PAGE; mature fibrils in 0-100% formic acid, 30 min, room temperature; centrifuged; released monomer in the supernatant on SDS-PAGE, normalised to 100% FA.
Data set [6] concerns the molecule itself. Nature of the data set: ThT fluorescence fibrillation kinetics; self-assembly into amyloid without seeds; 15 µM FapC (wt or mutant; wt also 1-15 µM), 50 mM Tris/HCl pH 7.4, 40 µM ThT, 37 °C, no shaking, followed for 120 h.

For the molecule “FapC from P. fluorescens Pf5, wild type (from UniProt P0DXF5 25-250) (natural protein)”, the formic acid needed to dissolve half of the fibrils in data set [1] came out at 70 % FA. A word on the koff: it is the rate constant with which the complex falls apart. Turning to “FapC from Pseudomonas sp. UK4, wild type (from UniProt P0DXF5 25-250) (natural protein)”, the values for the koff in data set [2], in data set [3] and in data set [4] were 3.94e-14 s⁻¹, 9.11e-13 s⁻¹ and 1.96e-15 s⁻¹, respectively. Consider “FapC from Pseudomonas putida F1, wild type (natural protein)”, for which, in data set [5], the formic acid needed to dissolve half of the fibrils came out at 70 % FA.

B1: FapC UK4 Asn200Ala (natural protein, Pseudomonas sp. UK4)
chain: GPAEKWKPTPAPTGTVAAAVTDTQVSKDNKFDDTKTLNNAGANGSLSNSKGNLGANIAAGSGNQQDNAAAITSSAGDAATVFAVADIYQESKDNKFTNKGTQNNALLNNSANNSSGNVGVNVAAGQGNQQKNNLAIVTADGKNVAAASNTEQVSLDNHFLNEASSKHSYKPQYVVANAGLLNSANNASGNIGVNVAAGAGNQQSNTLTLGSGCTVCAAGTGSKLAF
notes: FapC, Pseudomonas sp; UK4, point mutant made on the FapC UK4 plasmid; Same construct as m1 but for the mutation; source: E. coli BL21 (DE3), purified (Ni-NTA in 7.5 M guanidine hydrochloride), desalted
In the case of B1, in data set [6], the binding result was “binds”.

B2: FapC UK4 Asn229Ala (natural protein, Pseudomonas sp. UK4)
chain: GPAEKWKPTPAPTGTVAAAVTDTQVSKDNKFDDTKTLNNAGANGSLSNSKGNLGANIAAGSGNQQDNAAAITSSAGDAATVFAVADIYQESKDNKFTNKGTQNNALLNNSANNSSGNVGVNVAAGQGNQQKNNLAIVTADGKNVAAASNTEQVSLDNHFLNEASSKHSYKPQYVVNNAGLLNSANNASGNIGVNVAAGAGNQQSATLTLGSGCTVCAAGTGSKLAF
notes: as for B1
Consider B2, for which the binding result in data set [6] was “binds”.

B3: FapC UK4 N145A (natural protein, Pseudomonas sp. UK4)
chain: GPAEKWKPTPAPTGTVAAAVTDTQVSKDNKFDDTKTLNNAGANGSLSNSKGNLGANIAAGSGNQQDNAAAITSSAGDAATVFAVADIYQESKDNKFTNKGTQNNALLNNSANNSSGNVGVAVAAGQGNQQKNNLAIVTADGKNVAAASNTEQVSLDNHFLNEASSKHSYKPQYVVNNAGLLNSANNASGNIGVNVAAGAGNQQSNTLTLGSGCTVCAAGTGSKLAF
notes: as for B1
In the case of B3, the binding result in data set [6] is “binds”.

B4: FapC UK4 Asn87Ala (natural protein, Pseudomonas sp. UK4)
chain: GPAEKWKPTPAPTGTVAAAVTDTQVSKDNKFDDTKTLNNAGANGSLSNSKGNLGANIAAGSGAQQDNAAAITSSAGDAATVFAVADIYQESKDNKFTNKGTQNNALLNNSANNSSGNVGVNVAAGQGNQQKNNLAIVTADGKNVAAASNTEQVSLDNHFLNEASSKHSYKPQYVVNNAGLLNSANNASGNIGVNVAAGAGNQQSNTLTLGSGCTVCAAGTGSKLAF
notes: FapC, Pseudomonas sp; UK4, point mutant made on the FapC UK4 plasmid; Same construct as m1 but for the mutation; also called Asn87 mutant; source: E. coli BL21 (DE3), purified (Ni-NTA in 7.5 M guanidine hydrochloride), desalted
For B4, the binding result in data set [6] is recorded as “binds”.

B5: FapC UK4 Q89A (natural protein, Pseudomonas sp. UK4)
chain: GPAEKWKPTPAPTGTVAAAVTDTQVSKDNKFDDTKTLNNAGANGSLSNSKGNLGANIAAGSGNQADNAAAITSSAGDAATVFAVADIYQESKDNKFTNKGTQNNALLNNSANNSSGNVGVNVAAGQGNQQKNNLAIVTADGKNVAAASNTEQVSLDNHFLNEASSKHSYKPQYVVNNAGLLNSANNASGNIGVNVAAGAGNQQSNTLTLGSGCTVCAAGTGSKLAF
notes: FapC, Pseudomonas sp; UK4, point mutant made on the FapC UK4 plasmid; Same construct as m1 but for the mutation; also called Gln89 mutant; source: E. coli BL21 (DE3), purified (Ni-NTA in 7.5 M guanidine hydrochloride), desalted
For B5, in data set [6], the binding result is “binds”.

B6: FapC UK4 Gly84Ala (natural protein, Pseudomonas sp. UK4)
chain: GPAEKWKPTPAPTGTVAAAVTDTQVSKDNKFDDTKTLNNAGANGSLSNSKGNLGANIAAASGNQQDNAAAITSSAGDAATVFAVADIYQESKDNKFTNKGTQNNALLNNSANNSSGNVGVNVAAGQGNQQKNNLAIVTADGKNVAAASNTEQVSLDNHFLNEASSKHSYKPQYVVNNAGLLNSANNASGNIGVNVAAGAGNQQSNTLTLGSGCTVCAAGTGSKLAF
notes: FapC, Pseudomonas sp; UK4, point mutant made on the FapC UK4 plasmid; Same construct as m1 but for the mutation; also called G84A; source: E. coli BL21 (DE3), purified (Ni-NTA in 7.5 M guanidine hydrochloride), desalted
B6: the binding result in data set [6] is recorded as “binds”.

B7: FapC UK4 Lys155Asp and Ser228Asp (natural protein, Pseudomonas sp. UK4)
chain: GPAEKWKPTPAPTGTVAAAVTDTQVSKDNKFDDTKTLNNAGANGSLSNSKGNLGANIAAGSGNQQDNAAAITSSAGDAATVFAVADIYQESKDNKFTNKGTQNNALLNNSANNSSGNVGVNVAAGQGNQQDNNLAIVTADGKNVAAASNTEQVSLDNHFLNEASSKHSYKPQYVVNNAGLLNSANNASGNIGVNVAAGAGNQQDNTLTLGSGCTVCAAGTGSKLAF
notes: FapC, Pseudomonas sp; UK4, double charge mutant made on the FapC UK4 plasmid; Same construct as m1 but for the mutations; also called cluster of four negative charges (Asp46, Asp90, Asp155, and Asp228); source: E. coli BL21 (DE3), purified (Ni-NTA in 7.5 M guanidine hydrochloride), desalted
With B7, the binding result in data set [6] is given as “binds”.

B8: FapC UK4 Gly75Pro (natural protein, Pseudomonas sp. UK4)
chain: GPAEKWKPTPAPTGTVAAAVTDTQVSKDNKFDDTKTLNNAGANGSLSNSKPNLGANIAAGSGNQQDNAAAITSSAGDAATVFAVADIYQESKDNKFTNKGTQNNALLNNSANNSSGNVGVNVAAGQGNQQKNNLAIVTADGKNVAAASNTEQVSLDNHFLNEASSKHSYKPQYVVNNAGLLNSANNASGNIGVNVAAGAGNQQSNTLTLGSGCTVCAAGTGSKLAF
notes: as for B1
Turning to B8, in data set [6], the binding result is “binds”.

B9: FapC UK4 Gln227Ala (natural protein, Pseudomonas sp. UK4)
chain: GPAEKWKPTPAPTGTVAAAVTDTQVSKDNKFDDTKTLNNAGANGSLSNSKGNLGANIAAGSGNQQDNAAAITSSAGDAATVFAVADIYQESKDNKFTNKGTQNNALLNNSANNSSGNVGVNVAAGQGNQQKNNLAIVTADGKNVAAASNTEQVSLDNHFLNEASSKHSYKPQYVVNNAGLLNSANNASGNIGVNVAAGAGNQASNTLTLGSGCTVCAAGTGSKLAF
notes: as for B1
As for B9, the binding result in data set [6] is given as “binds”.

B10: FapC UK4 Asp90Lys and Ser228Lys (natural protein, Pseudomonas sp. UK4)
chain: GPAEKWKPTPAPTGTVAAAVTDTQVSKDNKFDDTKTLNNAGANGSLSNSKGNLGANIAAGSGNQQKNAAAITSSAGDAATVFAVADIYQESKDNKFTNKGTQNNALLNNSANNSSGNVGVNVAAGQGNQQKNNLAIVTADGKNVAAASNTEQVSLDNHFLNEASSKHSYKPQYVVNNAGLLNSANNASGNIGVNVAAGAGNQQKNTLTLGSGCTVCAAGTGSKLAF
notes: FapC, Pseudomonas sp; UK4, double charge mutant made on the FapC UK4 plasmid; Same construct as m1 but for the mutations; also called cluster of three positive charges (Lys90, Lys155, and Lys228); source: E. coli BL21 (DE3), purified (Ni-NTA in 7.5 M guanidine hydrochloride), desalted
Turning to B10, the binding result in data set [6] is listed as “binds”.

B11: FapC UK4 Gly75Ala (natural protein, Pseudomonas sp. UK4)
chain: GPAEKWKPTPAPTGTVAAAVTDTQVSKDNKFDDTKTLNNAGANGSLSNSKANLGANIAAGSGNQQDNAAAITSSAGDAATVFAVADIYQESKDNKFTNKGTQNNALLNNSANNSSGNVGVNVAAGQGNQQKNNLAIVTADGKNVAAASNTEQVSLDNHFLNEASSKHSYKPQYVVNNAGLLNSANNASGNIGVNVAAGAGNQQSNTLTLGSGCTVCAAGTGSKLAF
notes: as for B1
For the molecule B11, the binding result in data set [6] is on record as “binds”.
